Measured values taken from paper PMC10831248, “Characterization of membrane protein interactions by peptidisc-mediated mass photometry” (iScience, 2024).

How the values were obtained:
mass photometry = biological target: the molecule itself; assay: mass photometry
[1] = biological target: the molecule itself; assay: mass photometry; SEC fractions of His-tagged membrane proteins purified on Ni-NTA and reconstituted into peptidiscs, diluted 100-fold in PBS to ~5-20 nM; main species: subunits together in the native oligomer or complex in one disc
[2] = biological target: T1, vitamin B12 ABC transporter BtuCD, reconstituted in peptidiscs (E. coli, UniProt P06609 1-326; P06611 1-249); assay: 1 mM ATP
T1 chain 1: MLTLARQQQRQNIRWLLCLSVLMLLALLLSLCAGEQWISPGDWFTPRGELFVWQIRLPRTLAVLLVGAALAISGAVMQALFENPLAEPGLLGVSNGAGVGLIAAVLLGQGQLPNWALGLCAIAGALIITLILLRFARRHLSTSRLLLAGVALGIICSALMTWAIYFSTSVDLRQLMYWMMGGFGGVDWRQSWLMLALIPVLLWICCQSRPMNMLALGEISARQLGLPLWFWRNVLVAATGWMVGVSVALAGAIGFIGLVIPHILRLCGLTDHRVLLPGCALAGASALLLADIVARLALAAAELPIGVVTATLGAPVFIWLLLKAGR
T1 chain 2: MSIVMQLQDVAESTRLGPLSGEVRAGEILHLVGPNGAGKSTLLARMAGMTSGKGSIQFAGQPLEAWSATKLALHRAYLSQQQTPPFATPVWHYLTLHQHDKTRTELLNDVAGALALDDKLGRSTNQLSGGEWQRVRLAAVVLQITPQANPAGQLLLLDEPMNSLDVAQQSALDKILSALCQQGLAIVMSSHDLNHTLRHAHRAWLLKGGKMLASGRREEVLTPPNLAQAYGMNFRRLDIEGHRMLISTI

[3] = biological target: T1, vitamin B12 ABC transporter BtuCD, …; assay: without ATP

B1: mechanosensitive channel of large conductance (MscL) from Mycobacterium tuberculosis (natural protein)
chain: MLKGFKEFLARGNIVDLAVAVVIGTAFTALVTKFTDSIITPLINRIGVNAQSDVGILRIGIGGGQTIDLNVLLSAAINFFLIAFAVYFLVVLPYNTLRKKGEVEQPGDTQVVLLTEIRDLLAQTNGDSPGRHGGRGTPSPTDGPRASTESQ
notes: MscL, large-conductance mechanosensitive channel, Mycobacterium tuberculosis; also called M. Tb MscL; not shown: His6, C-terminal, kept
B1: binds (mass photometry).

B2: trimeric drug efflux pump AcrB (natural protein, E. coli, UniProt P31224 1-1049, looked up)
chain: MPNFFIDRPIFAWVIAIIIMLAGGLAILKLPVAQYPTIAPPAVTISASYPGADAKTVQDTVTQVIEQNMNGIDNLMYMSSNSDSTGTVQITLTFESGTDADIAQVQVQNKLQLAMPLLPQEVQQQGVSVEKSSSSFLMVVGVINTDGTMTQEDISDYVAANMKDAISRTSGVGDVQLFGSQYAMRIWMNPNELNKFQLTPVDVITAIKAQNAQVAAGQLGGTPPVKGQQLNASIIAQTRLTSTEEFGKILLKVNQDGSRVLLRDVAKIELGGENYDIIAEFNGQPASGLGIKLATGANALDTAAAIRAELAKMEPFFPSGLKIVYPYDTTPFVKISIHEVVKTLVEAIILVFLVMYLFLQNFRATLIPTIAVPVVLLGTFAVLAAFGFSINTLTMFGMVLAIGLLVDDAIVVVENVERVMAEEGLPPKEATRKSMGQIQGALVGIAMVLSAVFVPMAFFGGSTGAIYRQFSITIVSAMALSVLVALILTPALCATMLKPIAKGDHGEGKKGFFGWFNRMFEKSTHHYTDSVGGILRSTGRYLVLYLIIVVGMAYLFVRLPSSFLPDEDQGVFMTMVQLPAGATQERTQKVLNEVTHYYLTKEKNNVESVFAVNGFGFAGRGQNTGIAFVSLKDWADRPGEENKVEAITMRATRAFSQIKDAMVFAFNLPAIVELGTATGFDFELIDQAGLGHEKLTQARNQLLAEAAKHPDMLTSVRPNGLEDTPQFKIDIDQEKAQALGVSINDINTTLGAAWGGSYVNDFIDRGRVKKVYVMSEAKYRMLPDDIGDWYVRAADGQMVPFSAFSSSRWEYGSPRLERYNGLPSMEILGQAAPGKSTGEAMELMEQLASKLPTGVGYDWTGMSYQERLSGNQAPSLYAISLIVVFLCLAALYESWSIPFSVMLVVPLGVIGALLAATFRGLTNDVYFQVGLLTTIGLSAKNAILIVEFAKDLMDKEGKGLIEATLDAVRMRLRPILMTSLAFILGVMPLVISTGAGSGAQNAVGTGVMGGMVTATVLAIFFVPVFFVVVRRRFSRKNEDIEHSHTVDHH
notes: AcrB, multidrug efflux pump subunit, E. coli; It is carried in a peptidisc; source: E. coli C43(DE3), purified (DDM extraction, Ni-NTA, reconstituted into peptidiscs, SEC); not shown: His6, C-terminal, kept
B2: binds [1].

B3: periplasmic B12 binding protein BtuF (natural protein)
chain: APRVITLSPANTELAFAAGITPVGVSSYSDYPPQAQKIEQVSTWQGMNLERIVALKPDLVIAWRGGNAERQVDQLASLGIKVMWVDATSIEQIANALRQLAPWSPQPDKAEQAAQSLLDQYAQLKAQYADKPKKRVFLQFGINPPFTSGKESIQNQVLEVCGGENIFKDSRVPWPQVSREQVLARSPQAIVITGGPDQIPKIKQYWGEQLKIPVIPLTSDWFERASPRIILAAQQLCNALSQVD
Work on B3 yielded a Kd [2] of 25 nM and a Kd [3] of 48 nM.
